From patent US8816055 (DYAX, dated 2014)
Substitutions are numbered along the chain they refer to.

B1: M35-G04 (Fab, V domains shown)
VH: EVQLLESGGGLVQPGGSLRLSCAASGFTFSYYHMSWVRQAPGKGLEWVSVISPSGGSTKYADSVKGRFTISRDNSKNTLYLQMNSLRAEDTAVYYCARGGSSDYAWGSYRRPYYFDYWGQGTLVTVSS
VL: DIQMTQSPATLSLSPGERATLSCRASQSVSSYLAWYQQKPGQAPRLLIYDASNRATGIPARFSGSGSGTDFTLTISSLEPEDFAVYYCQQRSNWPRGFTFGPGTKVDIK
notes: also called 559A-M35-G04; 559A-M0035-G04
B2: X115-F02 (Fab, V domains shown)
VH: EVQLLESGGGLVQPGGSLRLSCAASGFTFSHYIMMWVRQAPGKGLEWVSGIYSSGGITVYADSVKGRFTISRDNSKNTLYLQMNSLRAEDTAVYYCAYRRIGVPRRDEFDIWGQGTMVTVSS
VL: DIQMTQSPSTLSASVGDRVTITCRASQSISSWLAWYQQKPGKAPKLLIYKASTLESGVPSRFSGSGSGTEFTLTISSLQPDDFATYYCQQYNTYWTFGQGTKVEIK
notes: also called 559A-X115-F02; 559A-X0115-F02
B3: X115-G04 (antibody, V domains shown)
VH: B2 VH with I101T
VL: B2 VL
notes: also called 559A-X115-G04; 559A-X0115-G04
B4: X115-D01 (antibody, V domains shown)
VH: EVQLLESGGGLVQPGGSLRLSCAASGFTFSIYSMHWVRQAPGKGLEWVSSIYPSRGMTWYADSVKGRFTISRDNSKNTLYLQMNSLRAEDTAVYYCAYRRTGIPRRDAFDIWGQGTMVTVSS
VL: B2 VL
notes: also called 559A-X115-D01; 559A-X0115-D01
B5: X115-A03 (antibody, V domains shown)
VH: B2 VH with Y98W, E108S, I111M
VL: B2 VL
notes: also called 559A-X115-A03; 559A-X0115-A03
B6: X101-A01 (antibody, V domains shown)
VH: EVQLLESGGGLVQPGGSLRLSCAASGFTFSHYLMTWVRQAPGKGLEWVSYISPSGGHTIYADSVKGRFTISRDNSKNTLYLQMNSLRAEDTAVYYCARVARGIAARSRTSYFDYWGQGTLVTVSS
VL: EIVLTQSPGTLSLSPGERATLSCRTSQFVNSNYLAWYQQKPGQAPRLLIYGASSRATGIPDRFSGSGSGTDFTLTISRLEPEDFAVYYCQQSSRTPWTFGQGTKVEIK
notes: also called 559A-X0101-A01
B7: X115-B07 (antibody, V domains shown)
VH: B6 VH with R98M, A100G, R101Q, A104R, A105G, D113A, Y114Q
VL: B6 VL
notes: also called 559A-X115-B07; 559A-X0115-B07
B8: M29-D09 (Fab, V domains shown)
VH: EVQLLESGGGLVQPGGSLRLSCAASGFTFSWYTMVWVRQAPGKGLEWVSYIYPSGGATFYADSVKGRFTISRDNSKNTLYLQMNSLRAEDTAVYYCAMGSYDYIWGFYSDHWGQGTLVTVSS
VL: QSALTQPPTVSVSPGQTARITCSGNKLGDKYVAWYQQKPGQSPMLVIYQDTKRPSRVSERFSGSNSANTATLSISGTQALDEADYYCQAWDSSIVIFGGGTRLTVL
notes: also called 559A-M29-D09 (sFab); 559A-M0029-D09
B9: M145-D11 (Fab, V domains shown)
VH: EVQLLESGGGLVQPGGSLRLSCAASGFTFSHYRMSWVRQAPGKGLEWVSSIYPSGGRTVYADSVKGRFTISRDNSKNTLYLQMNSLRAEDTAVYYCAKDKFEWRLLFRGIGNDAFDIWGQGTMVTVSS
VL: QSVLTQPPSVSVSPGQTASITCSGDKLGDKYTSWYQQRPGQSPVLVIYQDIKRPSGIPERFSGSNSGNTATLTISGTQAMDEADYYCQAWDSPNARVFGSGTKVTVL
notes: also called 559A-M145-D11 (sFab); 559A-M0145-D11
B10: M6-D09 (Fab, V domains shown)
VH: EVQLLESGGGLVQPGGSLRLSCAASGFTFSFYYMVWVRQAPGKGLEWVSVIYPSGGITVYADSVKGRFTISRDNSKNTLYLQMNSLRAEDTAVYYCARDKWAVMPPYYYYAMDVWGQGTTVTVSS
VL: DIQMTQSPSSLSASVGDRVTITCRASQSIRNYLNWYQQKPGKAPNLLIYAASTLQSGVPARFSGSGSGTDFTLTISSLQPEDFATYYCQQLSGYPHTFGQGTKLEIK
notes: also called M06-D09; 559A-M06-D09
B11: M28-D02 (Fab, V domains shown)
VH: EVQLLESGGGLVQPGGSLRLSCAASGFTFSWYPMQWVRQAPGKGLEWVSYIYPSGGGTDYADSVKGRFTISRDNSKNTLYLQMNSLRAEDTATYYCATSSGWLGDAFDIWGQGTMVTVSS
VL: DIQMTQSPSSLSASEGDMVTITCRTSRRIGTYLNWYQQKPGKAPKLLIYGASSLQSGVPSRFSGSGSGTDFTLTVSSLQPEDVGTYYCQQSFSSPWTFGPGTKVEIK

target: pKal catalytic domain Mutant 4 (human, UniProt P03952 391-638); assay: Ki,app, enzyme inhibition
Sequence (P03952 other isoform, or with tags, fused parts or gaps mutant): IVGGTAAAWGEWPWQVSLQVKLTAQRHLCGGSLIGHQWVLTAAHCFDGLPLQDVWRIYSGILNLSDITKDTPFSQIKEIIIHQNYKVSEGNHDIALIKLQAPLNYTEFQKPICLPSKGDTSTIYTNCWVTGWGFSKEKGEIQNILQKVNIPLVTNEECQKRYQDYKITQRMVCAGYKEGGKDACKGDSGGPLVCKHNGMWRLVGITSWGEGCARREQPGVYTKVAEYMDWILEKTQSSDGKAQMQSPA

First: B1
Second: B2
The Ki of the first is 8-fold higher: 0.8 nM for the first, 0.1 nM for the second. The second binds more tightly here.

Compared with B3, B4 is 2.5-fold lower in Ki: 0.3 nM for the first, 0.12 nM for the second.

Going from B5 to B6, the Ki rises from 0.13 nM to 0.25 nM (1.9-fold). The first binds more tightly here.

Going from B7 to B8, the Ki rises from 0.14 nM to 0.39 nM (2.8-fold).

Compared with B9, B10 is 14-fold higher in Ki: 0.21 nM for the first, 2.9 nM for the second. The first binds more tightly here.

target: T1, pKal catalytic domain Mutant 1 (human, UniProt P03952 391-638, limits assumed); assay: Ki,app, enzyme inhibition
T1 construct: catalytic domain with His tag from Pichia pastoris
T1 sequence (P03952 other isoform, or with tags, fused parts or gaps mutant limits assumed): as the sequence (P03952 other isoform, or with tags, fused parts or gaps mutant) above, with A6N, A7S, A8S, S88A, N91A, S135A, K136A counted along it

Compared with B1, B2 is 1.6-fold higher in Ki: 0.09 nM for the first, 0.14 nM for the second. The first binds more tightly here.

Compared with B3, B4 is 1.5-fold lower in Ki: 0.4 nM for the first, 0.26 nM for the second. The second binds more tightly here.

Going from B5 to B6, the Ki rises from 0.23 nM to 14 nM (61-fold). The first binds more tightly here.

Compared with B7, B8 is 17-fold lower in Ki: 4.7 nM for the first, 0.27 nM for the second.

Going from B9 to B10, the Ki rises from 0.23 nM to 3.4 nM (15-fold). The first binds more tightly here.

target: T2, pKal catalytic domain Mutant 2 (human, UniProt P03952 391-638, limits assumed); assay: Ki,app, enzyme inhibition
T2 construct: catalytic domain with His tag from Pichia pastoris
T2 sequence (P03952 other isoform, or with tags, fused parts or gaps mutant limits assumed): as the sequence (P03952 other isoform, or with tags, fused parts or gaps mutant) above, with A6N, A7S, A8S, R161A, Q163A, Y165A, T168A, R170A counted along it

Compared with B1, B2 is 5.4-fold higher in Ki: 1.1 nM for the first, 5.9 nM for the second. The first binds more tightly here.

B3 and B4 are within 1.5-fold of each other in Ki: 2.2 nM for the first, 2.5 nM for the second.

Going from B5 to B6, the Ki rises from 3.7 nM to 20 nM (5.4-fold).

Going from B7 to B8, the Ki falls from 47 nM to 0.34 nM (140-fold). The second binds more tightly here.

Compared with B9, B10 is 140-fold higher in Ki: 0.1 nM for the first, 13.5 nM for the second. The first binds more tightly here.

target: T3, human plasma kallikrein (active form) (human, UniProt P03952 20-390; P03952 391-638); assay: ELISA, biotinylated pKal / streptavidin background
T3 construct: two disulfide linked chains; biotinylated in the ELISA; also called pKal; hpKal
Excerpt: Abbreviations used: "T/B" is the ELISA signal obtained using of the "target" (biotinylated plasma kallikrein) divided by the ELISA signal of the "background" (streptavidin); both of which were coated on microtiter plates. "nd" is not determined. The symbol "q" refers to the amber suppressible stop codon (TAG), which is translated as glutamine (Q) in strains of E. coli such as the TG1 cells that were used to express the Fab fragments.

T3 sequence (P03952 20-390, chain 1 of 2): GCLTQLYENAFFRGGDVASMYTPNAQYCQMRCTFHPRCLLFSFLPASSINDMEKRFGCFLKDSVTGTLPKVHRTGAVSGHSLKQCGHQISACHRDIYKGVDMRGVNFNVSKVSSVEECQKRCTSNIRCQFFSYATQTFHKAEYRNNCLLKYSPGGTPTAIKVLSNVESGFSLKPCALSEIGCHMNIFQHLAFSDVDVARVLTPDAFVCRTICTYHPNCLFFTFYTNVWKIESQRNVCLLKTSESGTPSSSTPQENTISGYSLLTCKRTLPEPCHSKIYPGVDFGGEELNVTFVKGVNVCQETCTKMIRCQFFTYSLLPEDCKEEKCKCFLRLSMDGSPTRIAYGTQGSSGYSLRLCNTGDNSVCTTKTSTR
T3 sequence (P03952 391-638, chain 2 of 2): as the sequence (P03952 other isoform, or with tags, fused parts or gaps mutant) above, with A6N, A7S, A8S counted along it

B11 was tested, and the “ELISA (T/B)” value was 3.7 T/B.
